Broadly, the Kd is a measure of binding affinity in units of concentration. Low values mean a tighter complex, high ones a looser complex. For orientation: stoichiometry N means the number of molecules, sites or subunits per partner or assembly.

Here are results for two molecules from paper PMC9970974 (2023).

For experiment [1], the target named is short version of the toxin domain (Ile323-the C-terminus) of MafB2_(MGI-2B16B6), no tag (N. meningitidis B16B6) (UniProt Q9JXD2). In words: ITC; Nano ITC, 20 °C, 10 mM Tris-HCl pH 8.0, 100 mM NaCl, 2 mM β-ME; 50 injections of 1 μl NmMafI2 (~1.3 mM) into NmMafB2-CT2 (~0.2 mM); independent binding sites model.
Experiment [2] deals with T1, short version of the toxin domain (Ile323-the C-terminus) of MafB2_(MGI-2B16B6), no tag (N. meningitidis B16B6, UniProt Q9JXD2 323-483).
T1 chain: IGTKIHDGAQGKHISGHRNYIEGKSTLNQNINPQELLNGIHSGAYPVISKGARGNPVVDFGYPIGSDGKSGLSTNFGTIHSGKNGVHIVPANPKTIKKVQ
In words: ITC.

For “MafI2_(MGI-2B16B6) with a C-terminal 6xHis-tag (from UniProt A0A0G4BSP3 1-139) (natural protein)”, in experiment [1], the equilibrium dissociation constant (Kd) stood at 40 nM and the stoichiometry N was found to be 1.

B1: MafI2_(MGI-2B16B6) with a C-terminal 6xHis-tag (natural protein)
chain: MYKIKCFYDQFSSGELFNYCQFLDNSSNQKINTRGTVYQYIIYVLTGDLYLQKDIDENLEFIHQAENNPNEVYSGGGQGFCWDISAEKVVFYHNEFDEEDGWPDLSCSLHTFKTALIAWNAFLQLPKSIHSVVETVIEE
Consider B1, for which binding in experiment [2] was characterised by a dissociation constant (Kd) of 35.1 nM. In other words, the double-digit nanomolar range.
